The chains are these.
B1: tNSP2 (ssDNA)
DNA: CTGACTGTAACCACGTATTGCGTTCCAGTCCCTATGACCAACGTCACAATAAGTCGCATAGGTA
B2: biotinylated tNSP2 (ssDNA)
DNA: B1 DNA
B3: NSP2 (ssDNA)
DNA: CTCCTCTGACTGTAACCACGTATTGCGTTCCAGTCCCTATGACCAACGTCACAATAAGTCGCATAGGTAGTCCAGAAGCC
B4: tNSP12 (ssDNA)
DNA: TGTAACCACGTGGTTCGCCCAGTTCCGTTCAATACACTCAACCCTGCACGGCATAGGTA
B5: NSP1 (ssDNA)
DNA: CTCCTCTGACTGTAACCACGGCGCAAGCCGGGGTGTACGTGTTATACGTGCGTGTATCGAGCATAGGTAGTCCAGAAGCC
B6: A48 (ssDNA)
DNA: GCTGGATGTCGCTTACGACAATATTCCTTAGGGGCACCGCTACATTGACACATCCAGC
B7: NSP3 (ssDNA)
DNA: CTCCTCTGACTGTAACCACGCAGCGTCACGTGTTGTTCCCCATTGTACTGATTCGTCGTGGCATAGGTAGTCCAGAAGCC
B8: tNSP9 (ssDNA)
DNA: TGTAACCACGTGCTAGATTACGTAACTGGTTGCTACGGGTTTCATCCTCGGCATAGGTA

The target of one data set is T1, SARS-CoV-2 nucleocapsid (N) protein, wild type (SARS-CoV-2 (wild type), UniProt P0DTC9 1-419). Nature of the data set: BLI; N protein on Ni-NTA sensor; BLI ([…], DPBS + 0.5 mM MgCl2 + 1 mM CaCl2, pH 7.4; […] (PBST). The conditions noted are these: protein: commercial; tags: His; chain copies: 2. (In BLI a coated tip is dipped into the sample, and binding shifts an interference pattern.)
As a reminder, the Kd is a measure of binding affinity in units of concentration. Take TAACCACGGCGCAAGCCGGGGTGTACGTGTTATACGTGCGTGTATCGAG (ssDNA) [tNSP1]: the Kd came out at 4.53 ± 0.96 nM.
As for CAGCGTCACGTGTTGTTCCCCATTGTACTGATTCGTCGTGGCAT (ssDNA) [tNSP3], the Kd worked out at 5.77 ± 1.17 nM.
B1: the Kd was 3.04 ± 1.53 nM.

Another data set deals with SARS-CoV-2 S1 protein (SARS-CoV-2, UniProt P0DTC2 13-685). Put plainly: BLI; BLI ([…], DPBS + 0.5 mM MgCl2 + 1 mM CaCl2, pH 7.4; […] (PBST). To be noted: protein: commercial.
Consider TAACCACGGCGCAAGCCGGGGTGTACGTGTTATACGTGCGTGTATCGAG (ssDNA) [biotinylated tNSP1], for which the binding result was “no binding”.
For CAGCGTCACGTGTTGTTCCCCATTGTACTGATTCGTCGTGGCAT (ssDNA) [biotinylated tNSP3], the binding result is reported as “no binding”.
With B2, the binding result is given as “no binding”.

A further data set addresses T1, SARS-CoV-2 nucleocapsid (N) protein, …. Described as above. The conditions noted are these: protein: commercial; tags: His; chain copies: 2.
B3: the Kd is 4.38 ± 1.21 nM.
As for B4, the Kd was 6.05 ± 2.41 nM.
On the same count and under the same terms, next, B5: 7.86 ± 1.17 nM; B6: 6.46 ± 1.04 nM.
On the same count and under the same terms, to ATTCATGCGCCAATAGTGGTTTGGAAATGTCTCCCCATACGCATAG (ssDNA) [tNSP5] belongs 12.6 ± 2.56 nM; to B7, 8.6 ± 1.06 nM.
Regarding CTTATGCACCAGGGGCCCGGTTCGGGCAGGCGCAAACACGGCATAGG (ssDNA) [tNSP10], the Kd was determined as 8.6 ± 1.2 nM.
For B8, the Kd stood at 22.2 ± 1.87 nM.

The target is the same in a further data set. Put plainly: BLI; aptamer on streptavidin sensor, PBST; BLI ([…], DPBS + 0.5 mM MgCl2 + 1 mM CaCl2, pH 7.4; […] (PBST). To be noted: protein: commercial; tags: His; chain copies: 2.
Regarding TAACCACGGCGCAAGCCGGGGTGTACGTGTTATACGTGCGTGTATCGAG (ssDNA) [biotinylated tNSP1], the Kd is 4.83 ± 1.09 nM.
The same measure, in the same setting: next, CAGCGTCACGTGTTGTTCCCCATTGTACTGATTCGTCGTGGCAT (ssDNA) [biotinylated tNSP3]: 2.91 ± 1.02 nM; B2: 4.51 ± 1.5 nM.

In the next data set the target is SARS-CoV-2 N protein, in-house (SARS-CoV-2 (wild type), UniProt P0DTC9 1-419). The data set is described as above. To be noted: protein: recombinant; chain copies: 2.
On to CAGCGTCACGTGTTGTTCCCCATTGTACTGATTCGTCGTGGCAT (ssDNA) [biotinylated tNSP3], for which the dissociation constant (Kd) is 7.52 ± 0.5 nM.
